The values that follow come from PMC2581521 (Developmental cell, 2008).

The chains are these.
B1: Crossveinless-2 (recombinant mouse CV2) (natural protein)
chain: not shown
B2: Twisted gastrulation (recombinant mouse Tsg) (natural protein, UniProt Q9EP52 25-222, looked up)
chain: CNKALCASDVSKCLIQELCQCRPGEGNCPCCKECMLCLGALWDECCDCVGMCNPRNYSDTPPTSKSTVEELHEPIPSLFRALTEGDTQLNWNIVSFPVAEELSHHENLVSFLETVNQLHHQNVSVPSNNVHAPFPSDKERMCTVVYFDDCMSIHQCKISCESMGASKYRWFHNACCECIGPECIDYGSKTVKCMNCMF

One test deals with T1, Xenopus Chordin-Myc (Xenopus, UniProt Q91713 20-941).
T1 sequence (looked up): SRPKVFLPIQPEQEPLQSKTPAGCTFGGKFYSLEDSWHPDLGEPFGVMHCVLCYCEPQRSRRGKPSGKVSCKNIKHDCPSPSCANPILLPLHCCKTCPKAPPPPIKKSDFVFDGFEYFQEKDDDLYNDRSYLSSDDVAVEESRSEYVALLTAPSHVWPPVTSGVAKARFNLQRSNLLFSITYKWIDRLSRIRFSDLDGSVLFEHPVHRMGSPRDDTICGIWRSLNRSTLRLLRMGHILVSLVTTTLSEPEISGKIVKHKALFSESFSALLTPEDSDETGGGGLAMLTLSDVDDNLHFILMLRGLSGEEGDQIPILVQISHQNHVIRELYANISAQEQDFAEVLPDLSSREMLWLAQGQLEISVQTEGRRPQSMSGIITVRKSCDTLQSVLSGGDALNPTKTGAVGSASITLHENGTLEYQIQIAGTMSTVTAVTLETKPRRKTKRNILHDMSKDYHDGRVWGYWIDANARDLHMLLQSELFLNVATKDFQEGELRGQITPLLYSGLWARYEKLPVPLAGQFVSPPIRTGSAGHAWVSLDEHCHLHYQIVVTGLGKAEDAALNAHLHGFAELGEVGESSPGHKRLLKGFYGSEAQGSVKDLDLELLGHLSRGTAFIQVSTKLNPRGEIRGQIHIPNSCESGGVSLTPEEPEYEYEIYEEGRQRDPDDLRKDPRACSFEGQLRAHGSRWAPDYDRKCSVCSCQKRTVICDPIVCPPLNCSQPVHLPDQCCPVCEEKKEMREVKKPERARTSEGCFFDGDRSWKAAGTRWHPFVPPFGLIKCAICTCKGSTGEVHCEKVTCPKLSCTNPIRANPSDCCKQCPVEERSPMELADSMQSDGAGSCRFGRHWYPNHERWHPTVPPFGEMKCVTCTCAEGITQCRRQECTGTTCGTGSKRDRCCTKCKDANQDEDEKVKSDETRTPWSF
The experiment in a line: cross-linking.

The target of test [1] is B1. The experiment in a line: co-IP.
For test [2], the target named is B2. The experiment in a line: cross-linking.

Take B1: in the test with Xenopus Chordin-Myc, the binding result is recorded as “binds”.
B2: the binding result in test [1] is recorded as “binds”.

B3: Bone Morphogenetic Protein 4 (recombinant human BMP4) (ligand, UniProt P12644 293-408, looked up)
chain: SPKHHSQRARKKNKNCRRHSLYVDFSDVGWNDWIVAPPGYQAFYCHGDCPFPLADHLNSTNHAIVQTLVNSVNSSIPKACCVPTELSAISMLYLDEYDKVVLKNYQEMVVEGCGCR
Take B3: the binding result (in test [2]; with Xenopus Chordin-Myc) was “binds” in each case.
